Molecular target: T1, LMO4 second LIM domain, residues 77-147 (in the tethered complex) (mouse, UniProt P61969 77-147)
T1 construct: LMO4, mouse, LIM2 domain, residues 77-147; also called LMO4_(LIM2); LMO4_(77–147)
T1 sequence (looked up): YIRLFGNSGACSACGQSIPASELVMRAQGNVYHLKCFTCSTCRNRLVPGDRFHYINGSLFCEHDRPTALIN
Assay: NMR solution structure; the two domains tethered on one chain by a glycine-serine linker; 20 mM sodium acetate pH 5.0, 35 mM NaCl, 0.5 mM TCEP-HCl
Settings: both partners purified

- binding result: binds
B1: DEAF1 residues 404-418 (in the tethered complex) (peptide, UniProt Q9Z1T5-1 404-418, looked up)
chain: IAPFPEAALPTSHPK
notes: Stood in the assay joined through a glycine-serine linker to the C-terminus of LMO4 77-147 on one chain; also called the DEAF1 peptide
